Assay [1] addresses Gab1 of insulin-stimulated 3T3-L1 fibroblasts (Mus musculus (Mouse)) (UniProt Q9QYY0). The experiment in a line: PI-3-kinase activity assay on anti-Gab1 immunoprecipitates from 3T3-L1 fibroblasts.
The target is the same in assay [2]. As to the kind of experiment: PI-3-kinase activity assay on immunoprecipitates from insulin stimulated 3T3-L1 fibroblasts.
For assay [3], the target named is endogenous Gab1 of EGF stimulated A431 cells (Homo sapiens (Human)). As to the kind of experiment: PI-3-kinase activity assay on anti-Gab1 immunoprecipitates from A431 cells.
The target in assay [4] is endogenous Gab1 of insulin stimulated A431 cells (Homo sapiens (Human)). The assay is described as above.
For assay [5], the target named is endogenous Gab1 of EGF stimulated A431 cells (Homo sapiens (Human)). As to the kind of experiment: PI-3-kinase activity assay on immunoprecipitates from EGF stimulated A431 cells.

As for “PI-3-kinase of 3T3-L1 fibroblasts (enzyme)”, in assay [1], the fold increase of PI-3-kinase activity in Gab1 immunoprecipitates came out at 2.4 fold. This substance also gave a Gab1 associated PI-3-kinase activity as percent of that associated with anti-phosphotyrosine in assay [2] of 71%.
In turn, PI-3-kinase of A431 cells (enzyme) returned a fold increase of PI-3-kinase activity in anti-Gab1 immunoprecipitates against unstimulated cells in assay [3] of 2.3 fold. The substance further displayed a fold increase of PI-3-kinase activity in Gab1 immunoprecipitates in assay [4] of 1.7 fold. In assay [5], this substance yielded an anti-Gab1 associated PI-3-kinase activity as percent of that in anti-phosphotyrosine immunoprecipitates of 42%.

Values taken from patent publication US6133428.
